Tests used:
IgG Control [1] = experiment: ELISA screen GH2 (HHJ), table P1-IgG, format IgG/scFv/Etag-HRP
ProL/A-HRP [2] = experiment: ELISA screen GH2 (HHJ), table P1-PrLA, format PrI/scFv/PrA-HRP
[3] = target: Human CD26-Fc fusion protein (human); experiment: ELISA screen GH2 (HHJ), table P1-CD26, format CD26/scFv/Etag-HRP
IgG Control [4] = experiment: ELISA screen of scFv clones, plate panel 'IgG Control'
ProL/A-HRP [5] = experiment: ELISA screen of scFv clones, plate panel 'ProL/A-HRP' (scFv quality check)
[6] = target: Human CD26-Fc fusion protein (human); experiment: ELISA screen of scFv clones, plate panel 'CD26' (CD26-Fc fusion protein per paragraph 510)
IgG Control [7] = experiment: ELISA screen, Plate2, panel IgG
[8] = target: Human CD26-Fc fusion protein (human); experiment: ELISA screen, Plate2, panel CD26
ProL/A-HRP [9] = experiment: ELISA screen, Plate2, panel ProL/ProA-HRP

Chain of Human CD26-Fc fusion protein (human) (chain, as listed by the source): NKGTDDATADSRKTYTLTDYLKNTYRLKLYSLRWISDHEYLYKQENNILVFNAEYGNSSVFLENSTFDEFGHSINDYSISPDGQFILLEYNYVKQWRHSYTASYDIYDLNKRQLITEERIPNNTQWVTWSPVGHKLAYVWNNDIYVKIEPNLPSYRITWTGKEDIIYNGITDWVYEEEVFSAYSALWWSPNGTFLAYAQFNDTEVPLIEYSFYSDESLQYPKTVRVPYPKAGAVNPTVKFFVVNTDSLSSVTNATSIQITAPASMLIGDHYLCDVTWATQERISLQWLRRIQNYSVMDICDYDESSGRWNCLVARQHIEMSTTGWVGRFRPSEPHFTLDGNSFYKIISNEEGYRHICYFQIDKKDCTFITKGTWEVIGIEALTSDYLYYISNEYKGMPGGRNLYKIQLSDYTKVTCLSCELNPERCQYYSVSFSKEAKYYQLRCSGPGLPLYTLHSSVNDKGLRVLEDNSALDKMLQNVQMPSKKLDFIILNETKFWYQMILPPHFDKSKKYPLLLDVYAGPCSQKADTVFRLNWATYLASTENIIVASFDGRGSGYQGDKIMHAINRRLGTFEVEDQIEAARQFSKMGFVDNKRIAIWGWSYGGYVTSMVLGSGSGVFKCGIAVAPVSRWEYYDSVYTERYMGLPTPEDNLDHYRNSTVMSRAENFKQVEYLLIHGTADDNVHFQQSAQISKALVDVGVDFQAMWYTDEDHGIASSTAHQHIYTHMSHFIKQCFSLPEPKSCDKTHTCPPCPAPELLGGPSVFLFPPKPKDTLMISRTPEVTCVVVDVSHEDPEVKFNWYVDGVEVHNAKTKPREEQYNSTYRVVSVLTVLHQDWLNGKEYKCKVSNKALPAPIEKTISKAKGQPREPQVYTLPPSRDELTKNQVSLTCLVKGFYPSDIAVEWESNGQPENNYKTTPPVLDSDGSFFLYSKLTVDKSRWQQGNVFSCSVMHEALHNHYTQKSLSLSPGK

| Binder | ELISA OD450 (IgG Control [4]) | ELISA OD450 (ProL/A-HRP [5]) | ELISA OD450 [6] | ELISA OD450 (IgG Control [7]) | ELISA OD450 [8] | ELISA OD450 (ProL/A-HRP [9]) | other results |
| --- | --- | --- | --- | --- | --- | --- | --- |
| CD26-03G scFv (scFv, part only; not given: VL-VH linker and detection tag, V domains shown, not shown: another chain or arm of the molecule; small tags and cut ends) VL: DIQMTQSPSSLSASVGDRVTITCRASQDVSSSVAWYQQKPGKAPKLLISYPGWLYSGVPSRFSGSGSGTDFTLTISSLQPEDFATYYCQQFGDFPMTFGQGTKVEIK VH: EVQLVESGGGLVQPGGSLRLSCAASGFTIGNYGIHWVRQAPGKGLEWVAWIGPYGGYTFYADSVKGRFTISADTSKNTAYLQMNSLRAEDTAVYYCARFNNLLWNGMDYWGQGTLVTVSS | – | – | – | – | – | – | ELISA OD450 (IgG Control [1]): 0.05; ELISA OD450 (ProL/A-HRP [2]): 3.16; ELISA OD450 [3]: 3.08 |
| CD26-04A scFv (scFv, part only; not given: VL-VH linker and detection tag, V domains shown, not shown: another chain or arm of the molecule; small tags and cut ends) VL: DIQMTQSPSSLSASVGDRVTITCRASQDVSGGVAWYQQKPGKAPKLLIYGTSGLYSGVPSRFSGSGSGTDFTLTISSLQPEDFATYYCQQGGDWPITFGQGTKVEIK VH: EVQLVESGGGLVQPGGSLRLSCAASGFAINNYSIHWVRQAPGKGLEWVASIWPYGGFTSYADSVKGRFTISADTSKNTAYLQMNSLRAEDTAVYYCARFFSSYGDMDYWGQGTLVTVSS | 0.069 | 3.11 | 2.92 | – | – | – | – |
| CD26-04E scFv (scFv, part only; not given: VL-VH linker and detection tag, V domains shown, not shown: another chain or arm of the molecule; small tags and cut ends) VL: DIQMTQSPSSLSASVGDRVTITCRASQDVNDGVAWYQQKPGKAPKLLIYWASYLYSGVPSRFSGSGSGTDFTLTISSLQPEDFATYYCQQSWNFPLTFGQGTKVEIK VH: EVQLVESGGGLVQPGGSLRLSCAASGFTINDGFIHWVRQAPGKGLEWVAGIWPFGGSTSYADSVKGRFTISADTSKNTAYLQMNSLRAEDTAVYYCARFDVVDWGVMDYWGQGTLVTVSS | – | – | – | – | – | – | ELISA OD450 (IgG Control [1]): 0.05; ELISA OD450 (ProL/A-HRP [2]): 3.08; ELISA OD450 [3]: 3.06 |
| CD26-01F scFv (scFv, part only; not given: VL-VH linker and detection tag, V domains shown, not shown: another chain or arm of the molecule; small tags and cut ends) VL: DIQMTQSPSSLSASVGDRVTITCRASQDVWGYVAWYQQKPGKAPKLLIFSSRSLYSGVPSRFSGSGSGTDFTLTISSLQPEDFATYYCQQYFNWPITFGQGTKVEIK VH: EVQLVESGGGLVQPGGSLRLSCAASGFTISDYSIHWVRQAPGKGLEWVASIWPYGGFTSYADSVKGRFTISADTSKNTAYLQMNSLRAEDTAVYYCARFHSSSGDMDYWGQGTLVTVSS | – | – | – | 0.045 | 1.29 | 2.71 | – |
| CD26-12D scFv (scFv, part only; not given: VL-VH linker and detection tag, V domains shown, not shown: another chain or arm of the molecule; small tags and cut ends) VL: DIQMTQSPSSLSASVGDRVTITCRASQDVYSWVAWYQQKPGKAPKLLIYGPGSLYSGVPSRFSGSGSGTDFTLTISSLQPEDFATYYCQQYYNYPLTFGQGTKVEIK VH: EVQLVESGGGLVQPGGSLRLSCAASGFTINSSYIHWVRQAPGKGLEWVAGIGPYWGFTSYADSVKGRFTISADTSKNTAYLQMNSLRAEDTAVYYCARFYSSYGFMDYWGQGTLVTVSS | 0.051 | 3.05 | – | – | – | – | – |
| CD26-01G scFv (scFv, part only; not given: VL-VH linker and detection tag, V domains shown, not shown: another chain or arm of the molecule; small tags and cut ends) VL: DIQMTQSPSSLSASVGDRVTITCRASQDVNNSVAWYQQKPGKAPKLLIFSPTGLYSGVPSRFSGSGSGTDFTLTISSLQPEDFATYYCQQYFDFPLTFGQGTKVEIK VH: EVQLVESGGGLVQPGGSLRLSCAASGFTIGNYGIHWVRQAPGKGLEWVAWIGPSGGYTFYADSVKGRFTISADTSKNTAYLQMNSLRAEDTAVYYCARFDVHGFHGMDYWGQGTLVTVSS | – | – | – | 0.047 | 2.5 | 2.74 | – |

Second part, led by results:

| ELISA OD450 (IgG Control [4]) | ELISA OD450 (ProL/A-HRP [5]) | ELISA OD450 [6] | ELISA OD450 (IgG Control [7]) | ELISA OD450 [8] | ELISA OD450 (ProL/A-HRP [9]) | Binder | other results |
| --- | --- | --- | --- | --- | --- | --- | --- |
| – | – | – | 0.047 | 2.3 | 2.73 | CD26-07H scFv (scFv, part only; not given: VL-VH linker and detection tag, V domains shown, not shown: another chain or arm of the molecule; small tags and cut ends) VL: DIQMTQSPSSLSASVGDRVTITCKSNQNLLYSHGRTYLNWYQQKPGKAPKLLIFGTSHLYSGVPSRFSGSGSGTDFTLTISSLQPEDFATYYCYQGYHVPFTFGQGTKVEIK VH: EVQLVESGGGLVQPGGSLRLSCKASGYTFARFGMYWVRQAPGKGLEWVAFIAPNHGYTFYADSVKGRFTISADTSKNTAYLQMNSLRAEDTAVYYCARGHWYHGYMDYWGQGTLVTVSS | – |
| 0.05 | 3.13 | 0.948 | – | – | – | CD26-01D scFv (scFv, part only; not given: VL-VH linker and detection tag, V domains shown, not shown: another chain or arm of the molecule; small tags and cut ends) VL: DIQMTQSPSSLSASVGDRVTITCRASQDVNSNVAWYQQKPGKAPKLLIFGSGGLYSGVPSRFSGSGSGTDFTLTISSLQPEDFATYYCQQYSSYPLTFGQGTKVETK VH: EVQLVESGGGLVQPGGSLRLSCAASGFTINDSYIHWVRQAPGKGLEWVAWIWPYGGFTYYADSVKGRFTISADTSKNTAYLQMNSLRAEDTAVYYCARFLGSSSIMDYWGQGTLVTVSS | – |
| 0.045 | 3.14 | – | – | – | – | CD26-03B scFv (scFv, part only; not given: VL-VH linker and detection tag, V domains shown, not shown: another chain or arm of the molecule; small tags and cut ends) VL: DIQMTQSPSSLSASVGDRVTITCRASQDVYYFVAWYQQKPGKAPKLLISWPTGLYSGVPSRFSGSGSGTDFTLTISSLQPEDFATYYCQQYFSYPITFGQGTKVEIK VH: EVQLVESGGGLVQPGGSLRLSCAASGFTIGNSYIHWVRQAPGKGLEWVAGIGPYWGFTSYADSVKGRFTISADTSKNTAYLQMNSLRAEDTAVYYCARFNGSSGFMDYWGQGTLVTVSS | – |
| 0.046 | 3.03 | 0.68 | – | – | – | CD26-10B scFv (scFv, part only; not given: VL-VH linker and detection tag, V domains shown, not shown: another chain or arm of the molecule; small tags and cut ends) VL: DIQMTQSPSSLSASVGDRVTITCRASQDVWGYVAWYQQKPGKAPKLLIFASGALYSGVPSRFSGSGSGTDFTLTISSLQPEDFATYYCQQYFNWPITFGQGTKVEIK VH: EVQLVESGGGLVQPGGSLRLSCAASGFTISDYSIHWVRQAPGKGLEWVASIWPYGGFTSYADSVKGRFTISADTSKNTAYLQMNSLRAEDTAVYYCARFHSSSGDMDYWGQGTLVTVSS | – |

From patent US12497462
